Measured values from publication PMC3380378.

Assays:
Experiment in all cases: purified protein
[1] = system: O=C(O)C(=O)C[C@@H](O)[C@@H](O)[C@H](O)[C@H](O)COP(=O)(O)O; conditions: Mg2+; pH 10.0
[2] = substrate: Nc1ccn([C@@H]2O[C@H](COP(=O)(O)OP(=O)(O)OP(=O)(O)O)[C@@H](O)[C@H]2O)c(=O)n1; format: biochemical, Escherichia coli; conditions: Mg2+; pH 9.3
[3] = substrate: O=C(O)C(=O)C[C@@H](O)[C@@H](O)[C@H](O)[C@H](O)CO; format: biochemical, Escherichia coli; conditions: Mg2+; pH 9.3

Molecule	Km [1] [µM]	Km [2] [µM]	Km [3] [µM]
3-deoxy-D-manno-octulosonic acid 8-phosphate phosphatase (KdsC) (Escherichia coli K-12)	370 ± 10	–	–
3-deoxy-D-manno-octulosonate cytidylyltransferase (KdsB, CMP-KDO synthetase) (Escherichia coli K-12) (protein) MSFVVIIPARYASTRLPGKPLVDINGKPMIVHVLERARESGAERIIVATDHEDVARAVEAAGGEVCMTRADHQSGTERLAEVVEKCAFSDDTVIVNVQGDEPMIPATIIRQVADNLAQRQVGMATLAVPIHNAEEAFNPNAVKVVLDAEGYALYFSRATIPWDRDRFAEGLETVGDNFLRHLGIYGYRAGFIRRYVNWQPSPLEHIEMLEQLRVLWYGEKIHVAVAQEVPGTGVDTPEDLERVRAEMR	–	330 ± 40	280 ± 20
